Assay results taken from doi:10.1101/2022.11.03.515106 (bioRxiv, 2022).

T1: GFP-DBR1 (human, UniProt Q9UK59 1-544)
T1 sequence: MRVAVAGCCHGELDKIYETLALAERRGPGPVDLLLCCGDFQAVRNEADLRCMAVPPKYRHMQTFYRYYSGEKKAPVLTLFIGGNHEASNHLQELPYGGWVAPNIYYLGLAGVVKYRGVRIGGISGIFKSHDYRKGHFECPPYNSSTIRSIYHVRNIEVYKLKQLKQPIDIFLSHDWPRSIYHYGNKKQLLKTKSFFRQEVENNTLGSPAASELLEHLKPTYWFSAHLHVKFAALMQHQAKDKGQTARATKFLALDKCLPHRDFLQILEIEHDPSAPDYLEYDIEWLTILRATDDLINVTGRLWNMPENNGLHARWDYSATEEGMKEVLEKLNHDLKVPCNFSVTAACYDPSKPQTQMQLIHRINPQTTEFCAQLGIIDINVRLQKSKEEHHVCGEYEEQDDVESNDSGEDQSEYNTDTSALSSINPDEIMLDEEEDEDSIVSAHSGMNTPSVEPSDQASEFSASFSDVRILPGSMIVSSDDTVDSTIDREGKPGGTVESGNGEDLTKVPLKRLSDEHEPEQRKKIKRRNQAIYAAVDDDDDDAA

T2: His-Flag-DBR1 (human, UniProt Q9UK59 1-544)
T2 sequence (looked up): T1 sequence

B1: TTDN1-mCherry (natural protein, human, UniProt Q8TAP9 1-179, looked up)
chain: MQRQNFRPPTPPYPGPGGGGWGSGSSFRGTPGGGGPRPPSPRDGYGSPHHTPPYGPRSRPYGSSHSPRHGGSFPGGRFGSPSPGGYPGSYSRSPAGSQQQFGYSPGQQQTHPQGSPRTSTPFGSGRVREKRMSNELENYFKPSMLEDPWAGLEPVSVVDISQQYSNTQTFTGKKGRYFC
B2: GST-TTDN1 (natural protein, human, UniProt Q8TAP9 1-179, looked up)
chain: B1 chain

Key:
GFP-DBR1 = molecular target: T1, GFP-DBR1; assay: pull-down
His-Flag-DBR1 = molecular target: T2, His-Flag-DBR1; assay: pull-down

Binder | binding result (GFP-DBR1) | binding result (His-Flag-DBR1)
B1 | binds | 
B2 |  | binds
